These results are taken from the Human Domainome abundance scans (Beltran et al. 2025).

± gives the uncertainty stated by the source.

To fix the notation:
B1: Peroxisome proliferator-activated receptor delta, residues 71 to 145; numbered along this chain, Q03181 (parent)
chain: NMECRVCGDKASGFHYGVHACEGCKGFFRRTIRMKLEYEKCERSCKIQKKNRNKCQYCRFQKCLALGMSHNAIRF

The variants in this data set derive from B1. As to the kind of experiment: abundance fitness (aPCA) (normalised: wild type 0, dead -1); higher = more abundant; growth selection in yeast, the domain comes from the species named. Particulars: Homo sapiens.
For the variant F75Q, the abundance fitness amounted to 0.301 ± 0.093. F75A: the abundance fitness was 0.15 ± 0.08.

In the case of R52S, the abundance fitness was -0.022 ± 0.04.

As for R52V, the abundance fitness stood at 0.07 ± 0.038. With R52K, the abundance fitness turned out to be 0.207 ± 0.049. With D9A, the abundance fitness was -0.065 ± 0.043. Take D9S: the abundance fitness is -0.178 ± 0.045. To Q56S belongs 0.008 ± 0.039; to Y57D, -0.335 ± 0.11; to Y38H, -0.718 ± 0.22. Turning to Y38E, the abundance fitness was -0.803 ± 0.11. As for C41W, the abundance fitness was -0.774 ± 0.22. In the case of C7G it was -0.504 ± 0.06. In the case of C7T it was -0.862 ± 0.13; in that of C21Q, -0.763 ± 0.13; in that of I73G, 0.136 ± 0.033. To I73Q belongs 0.078 ± 0.053; to I73D, 0.119 ± 0.055. With F60H, the abundance fitness was -0.528 ± 0.17. In the case of F60P it was -0.802 ± 0.11; in that of F60M, -0.073 ± 0.055; in that of K54D, -0.02 ± 0.063. As to K54Y, the abundance fitness turned out to be 0.17 ± 0.07. Turning to K54E, the abundance fitness worked out at 0.122 ± 0.041.

Consider C45V, for which the abundance fitness is -0.84 ± 0.08. In the case of C58I it was -0.82 ± 0.31; in that of C58M, -0.63 ± 0.11; in that of C58Q, -0.848 ± 0.17. On to N51R, for which the abundance fitness is -0.395 ± 0.055. For the variant N51T, the abundance fitness was -0.002 ± 0.062.

With N51Q, the abundance fitness is -0.042 ± 0.063. Regarding N51H, the abundance fitness was -0.071 ± 0.089.

In the case of R59K, the abundance fitness was -0.199 ± 0.064. Regarding R59D, the abundance fitness was -0.361 ± 0.13. To R59W belongs 0.204 ± 0.038; to R59V, -0.472 ± 0.058; to R59G, -0.867 ± 0.076. To K40P belongs -0.117 ± 0.056; to K40Q, -0.05 ± 0.05. In the case of K10W it was -0.206 ± 0.053; in that of K10A, -0.002 ± 0.041. With K10V, the abundance fitness came out at 0 ± 0.038. In the case of E3F, the abundance fitness is -0.086 ± 0.08. To H19P belongs -0.028 ± 0.042; to H19D, 0.205 ± 0.059. In the case of H19E it was 0.136 ± 0.046; in that of H19G, -0.205 ± 0.041; in that of M2R, -0.417 ± 0.048. To M2Y belongs -0.113 ± 0.1; to M2L, -0.315 ± 0.059.

Consider F27E, for which the abundance fitness was -0.85 ± 0.13. Consider F27L, for which the abundance fitness was -0.784 ± 0.098. To F27M belongs -1.02 ± 0.27; to L64F, -0.828 ± 0.23. With C63T, the abundance fitness was -0.85 ± 0.13. To C63D belongs -0.635 ± 0.14; to T31G, -0.717 ± 0.085; to T31S, -0.043 ± 0.041. To R33D belongs 0.177 ± 0.069; to A11I, -0.154 ± 0.083; to A11Y, -0.31 ± 0.083. As for A11K, the abundance fitness is -0.482 ± 0.091. In the case of Y16H it was -0.13 ± 0.071. In the case of Y16A it was -0.065 ± 0.042. In the case of R29N it was 0.085 ± 0.066. For R29I, the abundance fitness came out at 0.132 ± 0.065. As for G17A, the abundance fitness is -0.465 ± 0.062.

On to G17I, for which the abundance fitness was -0.813 ± 0.19. To G17P belongs -0.527 ± 0.067; to R30I, -0.31 ± 0.1; to R30S, -0.088 ± 0.044. For R30V, the abundance fitness is -0.188 ± 0.049. For the variant V6Y, the abundance fitness is -0.748 ± 0.17. As to V6F, the abundance fitness is -0.547 ± 0.14. Take L36G: the abundance fitness is -0.224 ± 0.038.

In the case of L36C, the abundance fitness was -0.13 ± 0.064. As for S12N, the abundance fitness was -0.098 ± 0.067.

S12Q: the abundance fitness is -0.115 ± 0.057.

In the case of F14G, the abundance fitness was -0.299 ± 0.039.

For the variant F14I, the abundance fitness came to 0.002 ± 0.064. To G23Y belongs 0.021 ± 0.072; to G23E, 0.17 ± 0.04; to R43N, 0.223 ± 0.069.

With R43C, the abundance fitness is -0.138 ± 0.076. On to R43V, for which the abundance fitness was -0.158 ± 0.049.

For R43G, the abundance fitness was -0.085 ± 0.033. With N53H, the abundance fitness is -0.152 ± 0.099. K62I: the abundance fitness is -0.245 ± 0.099. In the case of K62C it was -0.543 ± 0.13. To K62Q belongs -0.293 ± 0.077; to K62L, -0.318 ± 0.051. To G8Q belongs -0.253 ± 0.064; to G8E, -0.32 ± 0.061; to E39D, -0.063 ± 0.055. For E39R, the abundance fitness was -0.224 ± 0.032. To E39N belongs -0.222 ± 0.075.

Regarding E22L, the abundance fitness was -0.508 ± 0.056. Regarding E22T, the abundance fitness was -0.282 ± 0.056. In the case of K50Y it was -0.295 ± 0.13; in that of K50L, -0.069 ± 0.042; in that of H15M, -0.125 ± 0.05. Turning to H15V, the abundance fitness was -0.238 ± 0.043.

On to M34R, for which the abundance fitness is -0.161 ± 0.042. Take M34G: the abundance fitness was -0.033 ± 0.039. In the case of M34W it was -0.063 ± 0.054. To V18N belongs -0.372 ± 0.14; to V18D, -0.396 ± 0.082.

For the variant N71Q, the abundance fitness was 0.034 ± 0.051. In the case of E37I it was -0.069 ± 0.089; in that of E37C, 0.011 ± 0.062. Consider E37N, for which the abundance fitness was found to be 0.014 ± 0.084.

Turning to A72W, the abundance fitness was -0.353 ± 0.061. Take C4E: the abundance fitness is -0.571 ± 0.12. In the case of C4R it was -0.558 ± 0.07. As to C4M, the abundance fitness is -0.461 ± 0.11. Take A20W: the abundance fitness is -0.534 ± 0.11. As to A20K, the abundance fitness is -0.771 ± 0.24. In the case of A20Q it was -0.874 ± 0.21; in that of G13I, -0.324 ± 0.13. To G13A belongs -0.239 ± 0.044; to S69M, 0.029 ± 0.054; to S69L, -0.053 ± 0.047. With S69T, the abundance fitness is -0.013 ± 0.052. To C55A belongs -0.806 ± 0.14; to H70M, 0.09 ± 0.08; to H70D, 0.394 ± 0.1. In the case of C24E it was -0.924 ± 0.18; in that of C24K, -0.6 ± 0.14; in that of K46H, 0.047 ± 0.068. In the case of K46E it was 0.124 ± 0.04; in that of K46W, -0.153 ± 0.043.

Regarding K46I, the abundance fitness came out at 0.12 ± 0.068. On to K35W, for which the abundance fitness was -0.535 ± 0.091.

Turning to K35I, the abundance fitness was -0.655 ± 0.19.

As for L66M, the abundance fitness came to 0.109 ± 0.05. In the case of L66A it was -0.077 ± 0.048; in that of L66E, 0.067 ± 0.046. Take F28E: the abundance fitness is -0.667 ± 0.12. In the case of F28M, the abundance fitness is -0.156 ± 0.081. Consider F28N, for which the abundance fitness is -0.586 ± 0.16. In the case of F28V it was -0.538 ± 0.067; in that of G67K, -0.407 ± 0.091; in that of G67I, -0.74 ± 0.22. To G67Q belongs -0.604 ± 0.16; to K49E, 0.144 ± 0.15; to G26I, 0.025 ± 0.099. Consider G26A, for which the abundance fitness stood at 0.068 ± 0.04. Take G26H: the abundance fitness was 0.221 ± 0.066. In the case of E42Y it was -0.093 ± 0.089; in that of E42A, -0.179 ± 0.037; in that of E42C, -0.394 ± 0.077. Regarding M68T, the abundance fitness was -0.769 ± 0.14. Turning to M68V, the abundance fitness was -0.652 ± 0.074.

As for M68L, the abundance fitness is -0.725 ± 0.089. Q61S: the abundance fitness is -0.248 ± 0.056. Turning to Q61T, the abundance fitness is -0.304 ± 0.062. To Q61A belongs -0.069 ± 0.039. In the case of Q61C it was -0.615 ± 0.19; in that of Q61R, -0.296 ± 0.038. In the case of K25W it was 0.01 ± 0.043; in that of N1L, -0.455 ± 0.084; in that of N1W, -0.593 ± 0.12.

S44I: the abundance fitness was -0.212 ± 0.091. Turning to S44Y, the abundance fitness worked out at 0.061 ± 0.058. As for S44C, the abundance fitness was -0.164 ± 0.062. In the case of S44Q it was 0.069 ± 0.049; in that of S44P, -0.134 ± 0.058.
